The results in this text go back to patent CN114989291A (ZHEJIANG ANWEILUO DIAGNOSTIC TECH CO LTD, dated 2022).

The target of test [1] is 重组的RBD抗原 (SARS-CoV-2 Spike糖蛋白的RBD区域) (SARS-CoV-2, UniProt P0DTC2 319-541).
The target in test [2] is T1, 全长SARS-CoV-2 S蛋白 (野生型, IVCAS 6.7512, GenBank ID: QHD43416.1) (SARS-CoV-2, UniProt P0DTC2 14-1273). The test can be described thus: cell-based or functional assay.
Test [3] concerns the target SARS-CoV-2真病毒的S蛋白 (SARS-CoV-2, UniProt P0DTC2 14-1273). The test can be described thus: cell-based or functional assay.
Test [4] has as its target T1, 全长SARS-CoV-2 S蛋白 (野生型, IVCAS 6.7512, …). The experiment in a line: cell-based or functional assay. This is another data set of the same source.

Several values for one entry are separate records, joined by “and”; a condition that tells them apart may be missing. Identical values can stand only once. Like-named read-outs stand apart in the source and are kept apart here.

B1: 抗SARS-CoV-2全人源化单克隆抗体1B3 (antibody, V domains shown)
VH: VQLVESGGGVVQPGRSLRLSCAASGFTFSSYAMHWVRQAPGKGLEWVAVISYDGSNKYYADSVKGRFTISRDNSKNTLYLQMNSLRAEDTAVYYCAKVAGGPYYYDSSGRDWYFDLWGRGTLVTVSA
VL: DIQMTQSPSSLSASVGDRVSITCRASQSISSFLNWFQQKPGKAPNLLIYAASSLESGVPSRFSGSGSGTDFTLTISSLQPEDFATYYCQQSYSAPPTFGQGTRLEIKR
Regarding B1, the response in test [1] was half-maximal at 0.0134 µg/mL (EC50). Besides, the “EC50, 假病毒细胞模型中和活性 (luciferase, ACE2-293T细胞)” value in test [2] turned out to be 3.86 µg/mL; in test [4], 25.6 nM. Besides, in test [3], the “EC50, 真病毒感染的细胞模型中和活性 (Vero E6, 结晶紫细胞活率)” value is 16.4 μg/ml and 109 nM.
